Test [1] has as its target T1, recombinant His-tagged human OX40 extracellular domain (Homo sapiens, UniProt P43489).
Test [2] has as its target T2, human OX40 expressed on Flp-In CHO cells (Homo sapiens, UniProt P43489).
T2 construct: human OX40 (TNFRSF4) recombinantly expressed on the surface of CHO cells; The functional rows used the OX40-expressing Jurkat cells of the Promega kit; also called cell surface OX40; cell surface antigen
Description: flow cytometry on cells; one million CHO cells (1:1 mix of OX40-expressing and PD-1-expressing negative control cells) stained with 1 μg mAb in 100 μL MACS Buffer (DPBS, 0.5% BSA, 2 mM EDTA), 30 min, 4 °C; detected with anti-human IgG Fc-PE. To be noted: partners not purified. (A flow cytometer gives signals particle by particle.)

In test [3] the target is T1, recombinant His-tagged human OX40 …. Description: BLI; Octet Red96; 5 μg/mL antibody loaded onto Protein A biosensor, dipped into His-tagged OX40 extracellular domain at 200, 100 and 50 nM or 1600, 800 and 400 nM; 1:1 binding model, global fit. To be noted: one partner purified. (In general: BLI is a label-free optical method that tracks binding on a fibre tip over time.)

Test [4] has as its target T2, human OX40 expressed on Flp-In CHO cells. Description: cell-based or functional assay.

Consider 14 molecules from PMC6640694 (Antibodies, 2019).

Where two headings read alike, the source gives them in different places.

T1 sequence (P43489 29-214): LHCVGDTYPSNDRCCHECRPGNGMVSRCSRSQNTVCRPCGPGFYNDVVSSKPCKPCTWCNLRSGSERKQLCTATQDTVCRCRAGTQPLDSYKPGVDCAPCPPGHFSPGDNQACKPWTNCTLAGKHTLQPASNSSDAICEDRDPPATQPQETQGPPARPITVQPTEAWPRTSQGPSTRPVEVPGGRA
T2 sequence (P43489 29-277): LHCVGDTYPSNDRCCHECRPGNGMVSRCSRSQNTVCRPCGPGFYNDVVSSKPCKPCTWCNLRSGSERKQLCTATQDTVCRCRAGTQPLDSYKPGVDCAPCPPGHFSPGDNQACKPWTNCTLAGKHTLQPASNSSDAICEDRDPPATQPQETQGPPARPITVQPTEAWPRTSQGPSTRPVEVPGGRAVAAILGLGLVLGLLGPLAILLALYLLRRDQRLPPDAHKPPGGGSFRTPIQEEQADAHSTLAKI

B1: tOX40.15 (S-S-Sp-6) (antibody, V domains shown)
VH: QVQLVESGGGVVQPGRSLRLSCAASGFTFSSYGMHWVRQAPGKGLEWVAIIWYDGSNKYYADSVKGRFTISRDNSKNTLYLQMNSLRAEDTAVYFCAREGDYYGSGSYYPLDYYYYGMDVWGQGTTVTVSS
VL: DIQLTQSPSFLSASVGDRVTITCRASQGISSYLAWYQQKPGKAPKLLIYAASTLQSGVPSRFSGSGSGTEFTLTISSLQPEDFATYYCQQLNSFPRTFGQGTKVEIK
As a reminder, the Kd is the constant that tells how readily two partners part at equilibrium. With B1, the Kd in test [1] is 6 nM.

B2: tOX40.63 (antibody, V domains shown)
VH: QVQLVQSGAEVKKPGASVKVSCKVSGYTLTELSMHWVRQAPGKGLEWMGGFDPEDGETIYAQKFQGRVTMTEDTSTDTAYMELSSLRSEDTAVYYCAANWGSDYYYGMDVWGQGTTVTVSS
VL: AIQLTQSPSSLSASVGDRVTITCRASQGISSALAWYQQKPGKAPKLLIYDASSLESGVPSRFSGSGSGTDFTLTISSLQPEDFATYYCQQFNNYPRTFGQGTKVEIK
notes: human IgHG1 constant domains; kappa; source: ExpiCHO, transiently transfected; quantified in the supernatants
As for B2, the binding result in test [2] is “no binding (tested: 1 μg of anti-OX40 mAb in 100 μL)”.

B3: tOX40.21 (S-CL-LN-2) (antibody, V domains shown)
VH: QVQLVESGGGVVQPGRSLRLSCAASGFTFSNYGMHWVRQAPGKGLEWVAVIWYDGSNKYYADSVKGRFTISRDNSKNTLYLQMNSLRAEDTAVYYCARNGDSYFDYWGQGTLVTVSS
VL: not shown
As to B3, in test [1], the Kd worked out at 7 nM.

B4: tOX40.39 (S-CL-LN-1) (antibody, V domains shown)
VH: EVQLVESGGGLVQPGGSLRLSCAASGFTFSNYAMTWVRQAPGKGLEWVSTISGSGGSTYYADSVKGRFTISRDNSKNTLYLQMNSLRAEDTAVYYCAKADCGDNCYSFFDYWGQGTLVTVSS
VL: DIQMTQSPSSLSASVGDRVTITCRASQGISNWLAWYQQKPEKAPKSLIYAASSLQSGVPSRFSGSGSGTDFTLTISSLQPEDFATYYCQQYNSYPPTFGRGTKVEIK
Turning to B4, the Kd in test [1] was determined as 90 nM.

B5: tOX40.41 (S-CL-LN-9) (antibody, V domains shown)
VH: QVQLQESGPGLVKPSETLSLTCTVSGGSISSYYWSWIRQPPGKGLEWIGYIYYSGSTNYNPSLKSRVTISVDTSKNQFSLKLSSVTAADTAVYYCARYYDILTVWDWFDPWGQGTLVTVSS
VL: DIQMTQSPSSLSASVGDRVTITCRASQGISSWLAWYQQKPGKAPKSLIYAASSLQSGVPSRFSGSGSGTDFTLTISSLQPEDFATYYCQQYNSYPITFGQGTRLEIK
Take B5: the Kd in test [1] came out at 58.4 nM.

B6: tOX40.22 (S-CL-LN-5) (antibody, V domains shown)
VH: QVQLVESGGGVVQPGRSLRLSCAASGFTFSNYGMHWVRQAPGKGLEWVAVIWLDGSNKYYADSVKGRFTISRDNSKNTLYLQMNSLRAEDTAVYYCARAAAGSLYYGMDVWGQGTTVTVSS
VL: DIQMTQSPSSLSASVGDRVTITCRASQGINTWLAWYQQKPEKAPKSLIYAASSLQSGVPSRFSGSGSGTDFTLTISSLQPEDFATYYCQQYYSYPWTFGQGTKVEIR
Turning to B6, the Kd in test [1] came to 7.3 nM.

B7: tOX40.37 (S-S-Sp-10/S-CL-Sp-1) (antibody, V domains shown)
VH: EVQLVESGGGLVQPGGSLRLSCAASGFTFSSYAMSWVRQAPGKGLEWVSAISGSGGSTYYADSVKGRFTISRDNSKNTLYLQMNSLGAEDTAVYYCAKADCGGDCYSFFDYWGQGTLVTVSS
VL: DIQMTQSPSSLSASVGDRVTITCRASQGISSWLAWYQQKPEKAPKSLIYAASSLQSGVPSRFSGSGSGTDFTLTISSLQPEDFATYYCQQYNSYPPTFGQGTKVEIK
With B7, the Kd in test [1] amounted to 12.5 nM.

B8: tOX40.35 (S-S-Sp-3) (antibody, V domains shown)
VH: QVQLVQSGAEVKKPGASVKVSCKASGYTFTSYGITWVRQAPGQGLEWVGWISAYNGNTNYAQKLQGRVTMTTDTSTSTAYMELRSLRSDDTAVYYCARDFAGGSYYFDYWGQGTLVTVSS
VL: not shown
B8: in test [1], the Kd worked out at 2.7 nM.

B9: tOX40.40 (S-CL-LN-7) (antibody, V domains shown)
VH: QVQLVESGGDVVQPGMSLRLSCAASGFTFSDYGMHWVRQAPGKGLEWVAVIWYDGSNKYYEDSVKGRFTISRDNSKNTLYLQMNSLRAEDTAVYYCTRAGFGESGYGMDVWGQGTTVTVSS
VL: DIQMTQSPSSLSASVGDRVTITCRASQGISNYLAWYQQKPGKVPKLLIYAASTLQSGVPSRFSGSGSGTDFTLTISSLQPEDVATYYCQKYHSAPWTFGQGTKVEIK
On to B9, for which the Kd in test [1] worked out at 151 nM.

B10: tOX40.23 (S-CL-LN-8) (antibody, V domains shown)
VH: QVQLVESGGGVVQPGRSLRLSCAASGFTFSNYGMHWVRQAPGKGLEWVAVIWYDGSKKYYADSVKGRFTISRDNSKNTLYLQMNSLRAEDTAVYYCARAGFGESGYGMDVWGQGTTVTVSS
VL: DIQMTQSPSSLSASVGDRVTFTCRASQGINNYLAWYQQKPGKVPKLLIYAASTLQSGVPSRFSGSGSGTDFTLTISSLQPEDVATYYCQKYYSAPWTFGQGTKVEVK
Turning to B10, the dissociation constant Kd in test [1] amounted to 5.2 nM.

B11: tOX40.24 (antibody, V domains shown)
VH: QVQLVESGGGVVQPGRSLRLSCAASGFTFRSYGMHWVRQAPGKGLEWLAIIWYDGSNKYYADSVKGRLTISRDNSKNTLYLQMNSLRAEDTAVYYCARDTQVAEAGFPHHHYYGMDVWGQGTTVTVSS
VL: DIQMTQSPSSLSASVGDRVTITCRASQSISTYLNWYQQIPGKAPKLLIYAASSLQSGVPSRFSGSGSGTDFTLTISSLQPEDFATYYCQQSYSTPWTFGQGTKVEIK
notes: as for B2
As to B11, in test [3], the equilibrium dissociation constant (Kd) is 22.9 nM. Also, the “Promega In Vitro Assay EC50 (Agonist): luminescence of OX40-expressing Jurkat cells with FcγRIIB/CHO-K1 cells” value in test [4] came to 0.024 µg/mL.

B12: tOX40.4 (S-S-Sp-1/S-CL-Sp-2) (antibody, V domains shown)
VH: QVQLVQSGAEVKKPGASVKVSCKVSGYTLTELSMHWVRQAPGKGLEWMGGFDPKDGETIYAQKFQGRVTMTEDTSTDTAYMELSSLRSEDTAVYYCSTGYCSTTSCGGFDPWGQGTLVTVSS
VL: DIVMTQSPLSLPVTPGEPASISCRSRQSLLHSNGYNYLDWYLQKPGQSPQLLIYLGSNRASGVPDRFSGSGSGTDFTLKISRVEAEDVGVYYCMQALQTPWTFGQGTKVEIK
As to B12, the Kd in test [1] came out at 9 nM.

B13: tOX40.19 (S-CL-LN-4) (antibody, V domains shown)
VH: QVQLVESGGGVVQPGRSLRLSCAASGFTFSTYGMHWVRQAPGKGLEWVAVIWYDGSNKYYADSVKGRFTISRDNSKNTLYLQMNSLRAEDTAVYYCARTHYDILTGPNWFDPWGQGTLVTVSS
VL: DIQMTQSPSSLSASVGDRVTITCRASQDIRNDLGWYQQKPGKAPKRLIYAASSLQSGVPSRFSGSGSGTEFTLTISSLQPEDFATYYCLQHNSYPFTFGPGTKVDIK
For B13, the Kd in test [1] came to 7.7 nM.

B14: tOX40.31 (S-CL-LN-11) (antibody, V domains shown)
VH: QVQLQESGPGLVKPSETLSLTCTVSGDSISFYYWSWIRQPPGKGLEWIGCIYYSGSTNYNPSLKSRVTISVDTSKNQFSLKLNSVTAADTAVYYCARRLWFGVFDYWGQGTLVPVSS
VL: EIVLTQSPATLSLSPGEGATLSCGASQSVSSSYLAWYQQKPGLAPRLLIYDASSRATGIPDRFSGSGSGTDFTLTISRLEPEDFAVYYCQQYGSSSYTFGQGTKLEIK
Regarding B14, the Kd in test [1] is 22.4 nM.
